B2: complement C9 (natural protein)
chain: not shown
modifications: N-linked glycan (NAG) on Asn394
notes: One to three copies stand in sMAC, in two conformations; also called C9_(1); C9_(2); source: bought: Complement Technologies (as part of purified sMAC)

Holding throughout (conditions): both partners purified
The target in the assay “complement C9” is B2. The assay is described as follows: cross-linking; XL-MS of purified sMAC (0.5 mg/ml) with 1 mM DSS or 15 mM DMTMM, 30 min at RT, triplicates; LC-MS/MS, pLink.
Assay [1] addresses T1, complement C8 (C8α/C8β/C8γ) (human, UniProt P07357 31-584; P07358 55-591; P07360 21-202).
T1 construct: complement component C8 alpha chain, human; complement component C8 beta chain, human; complement component C8 gamma chain, human; Kept as one molecule; source: bought: Complement Technologies (as part of purified sMAC); copies: 1 + 1 + 1
Described as above.

Assay [2] concerns the target T1, complement C8 (C8α/C8β/C8γ). The assay is described as follows: cryo-EM structure; purified sMAC (Complement Technologies) at 0.065 mg/ml in 120 mM NaCl, 10 mM Hepes pH7.4; 3D classes with 1, 2 or 3 C9; focused refinements after density subtraction.

“And” between values parts separate entries of the source, which are not always exact repeats. Equal entries are not always repeated.

The text below walks through data of article doi:10.1101/2021.04.06.438592, “Structural basis for how sMAC is packaged for clearance” (bioRxiv, 2021).

T1 sequence (P07357 31-584, chain 1 of 3): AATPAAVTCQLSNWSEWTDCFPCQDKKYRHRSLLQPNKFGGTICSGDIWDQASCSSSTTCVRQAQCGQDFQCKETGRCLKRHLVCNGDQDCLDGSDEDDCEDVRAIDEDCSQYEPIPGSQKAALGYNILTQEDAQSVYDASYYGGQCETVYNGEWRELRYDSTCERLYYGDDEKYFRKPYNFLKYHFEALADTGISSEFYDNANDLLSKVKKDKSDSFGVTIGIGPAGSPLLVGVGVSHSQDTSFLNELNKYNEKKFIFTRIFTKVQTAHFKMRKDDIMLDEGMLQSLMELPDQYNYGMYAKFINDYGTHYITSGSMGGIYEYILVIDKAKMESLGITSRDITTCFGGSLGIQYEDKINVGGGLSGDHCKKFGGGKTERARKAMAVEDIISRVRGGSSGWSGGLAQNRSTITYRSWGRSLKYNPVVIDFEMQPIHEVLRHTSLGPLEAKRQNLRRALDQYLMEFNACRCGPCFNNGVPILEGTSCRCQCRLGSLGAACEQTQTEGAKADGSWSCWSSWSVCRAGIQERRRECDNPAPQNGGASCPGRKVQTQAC
T1 sequence (P07358 55-591, chain 2 of 3): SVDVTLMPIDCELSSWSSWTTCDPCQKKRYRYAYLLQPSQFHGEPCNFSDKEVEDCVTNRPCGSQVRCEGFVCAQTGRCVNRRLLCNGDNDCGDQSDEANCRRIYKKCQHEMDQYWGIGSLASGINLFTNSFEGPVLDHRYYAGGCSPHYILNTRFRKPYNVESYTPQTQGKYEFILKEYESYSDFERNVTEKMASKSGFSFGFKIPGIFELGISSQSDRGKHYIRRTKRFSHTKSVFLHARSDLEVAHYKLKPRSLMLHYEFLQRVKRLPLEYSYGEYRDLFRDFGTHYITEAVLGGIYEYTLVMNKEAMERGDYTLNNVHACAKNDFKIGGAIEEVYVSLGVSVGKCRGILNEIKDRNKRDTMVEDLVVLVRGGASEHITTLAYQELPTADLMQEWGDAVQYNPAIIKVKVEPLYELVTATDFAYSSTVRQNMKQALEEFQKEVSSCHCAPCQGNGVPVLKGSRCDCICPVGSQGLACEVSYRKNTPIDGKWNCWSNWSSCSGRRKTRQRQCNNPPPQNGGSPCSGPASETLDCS
T1 sequence (P07360 21-202, chain 3 of 3): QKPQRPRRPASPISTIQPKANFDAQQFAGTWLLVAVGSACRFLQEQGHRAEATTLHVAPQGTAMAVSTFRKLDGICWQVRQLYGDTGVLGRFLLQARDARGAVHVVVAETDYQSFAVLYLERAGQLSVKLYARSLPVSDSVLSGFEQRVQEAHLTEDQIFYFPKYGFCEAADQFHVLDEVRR
complement C9, sequence (P02748 22-559): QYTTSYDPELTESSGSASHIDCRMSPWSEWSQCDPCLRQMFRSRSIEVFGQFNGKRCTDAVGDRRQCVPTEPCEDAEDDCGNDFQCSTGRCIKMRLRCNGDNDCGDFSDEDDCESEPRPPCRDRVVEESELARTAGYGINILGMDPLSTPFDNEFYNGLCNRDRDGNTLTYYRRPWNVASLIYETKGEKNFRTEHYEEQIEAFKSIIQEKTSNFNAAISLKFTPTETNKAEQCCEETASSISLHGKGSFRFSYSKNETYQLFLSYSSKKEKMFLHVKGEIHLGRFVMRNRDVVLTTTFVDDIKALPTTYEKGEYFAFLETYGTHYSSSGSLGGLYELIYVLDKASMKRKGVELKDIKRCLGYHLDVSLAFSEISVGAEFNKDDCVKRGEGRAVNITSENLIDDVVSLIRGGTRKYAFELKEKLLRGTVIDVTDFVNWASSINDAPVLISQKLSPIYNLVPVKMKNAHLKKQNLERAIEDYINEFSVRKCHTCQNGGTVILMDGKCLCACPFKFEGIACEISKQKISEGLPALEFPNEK

B1: clusterin (natural protein, human)
chain 1: DQTVSDNELQEMSNQGSKYVNKEIQNAVNGVKQIKTLIEKTNEERKTLLSNLEEAKKKKEDALNETRESETKLKELPGVCNETMMALWEECKPCLKQTCMKFYARVCRSGSGLVGRQLEEFLNQSSPFYFWMNGDRIDSLLENDRQQTHMLDVMQDHFSRASSIIDELFQDRFFTREPQDTYHYLPFSLPHRRPHFFFPKSRIVR
chain 2: SLMPFSPYEPLNFHAMFQPFLEMIHEAQQAMDIHFHSPAFQHPPTEFIREGDDDRTVCREIRHNSTGCLRMKDQCDKCREILSVDCSTNNPSQAKLRRELDESLQVAERLTRKYNELLKSYQWKMLNTSSLLEQLNEQFNWVSRLANLTQGEDQYYLRVTTVASHTSDSDVPSGVTEVVVKLFDSDPITVTVPVEVSRKNPKFMETVAEKALQEYRKKHREE
modifications: highly glycosylated | highly glycosylated
notes: Secreted clusterin, about 80 kDa; multiple copies in sMAC; Not modelled in the deposited structures; the clusterin core model (residues 40-124 and 256-427) is a prediction; also called apolipoprotein J; source: bought: Complement Technologies (as part of purified sMAC)
On to B1, for which the binding result (with complement C9; in assay [1]) was “binds” in each case. Take B2: the “stoichiometry N” value in assay [2] is 1 copies and 3 copies.
